PMC9758056

Key:
[1] = target: Taxol-stabilized microtubules from porcine brain tubulin (porcine) (UniProt P02550); experiment: co-sedimentation; 200 nM LRRK^RCKW with various concentrations of taxol-stabilized microtubules, 10 minutes at room temperature, 20 mM Hepes pH 7.4, 110 mM NaCl (also 100 and 150 mM NaCl), 0.5 mM MgCl2, 0.5 mM TCEP, 5% glycerol, 20 μM GDP, 20 μM taxol; pelleted at 108,628 g; depletion from the supernatant on SYPRO-Red gels
[2] = target: Subtilisin-treated taxol-stabilized microtubules (C-terminal tubulin tails cleaved), labeled with Alexa Fluor 488 and biotin (bovine) (UniProt Q6B856); experiment: widefield fluorescence microscopy of labeled protein on tethered microtubules; Alexa Fluor 488-labeled microtubules tethered to a coverslip by biotin-streptavidin; TMR-labeled LRRK^RCKW (6.25 nM–50 nM; 100 nM for the NaCl series) incubated 5 minutes in 20 mM Hepes pH 7.4, 80 mM NaCl, 0.5 mM MgCl2, 0.5 mM TCEP, 5% glycerol, 20 μM GDP; also increasing sodium chloride
Sequence of Subtilisin-treated taxol-stabilized microtubules (C-terminal tubulin tails cleaved), labeled with Alexa Fluor 488 and biotin (bovine) (Q6B856 whole entry, looked up): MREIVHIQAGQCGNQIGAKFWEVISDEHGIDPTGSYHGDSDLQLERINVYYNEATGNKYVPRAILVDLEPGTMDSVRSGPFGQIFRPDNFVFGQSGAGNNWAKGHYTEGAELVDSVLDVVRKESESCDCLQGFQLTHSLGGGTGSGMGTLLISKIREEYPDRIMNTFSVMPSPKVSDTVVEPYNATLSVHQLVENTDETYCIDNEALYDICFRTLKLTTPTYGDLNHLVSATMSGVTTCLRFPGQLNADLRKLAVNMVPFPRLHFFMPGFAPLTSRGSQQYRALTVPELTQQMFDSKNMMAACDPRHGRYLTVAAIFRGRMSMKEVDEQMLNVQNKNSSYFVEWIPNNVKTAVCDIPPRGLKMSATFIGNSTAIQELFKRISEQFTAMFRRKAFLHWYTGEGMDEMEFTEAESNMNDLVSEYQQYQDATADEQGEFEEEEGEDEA

Sequence of TMR-LRRK2^RCKW (LRRK2^RCKW randomly labeled with BODIPY TMR-X) (Q5S007 1327-2527): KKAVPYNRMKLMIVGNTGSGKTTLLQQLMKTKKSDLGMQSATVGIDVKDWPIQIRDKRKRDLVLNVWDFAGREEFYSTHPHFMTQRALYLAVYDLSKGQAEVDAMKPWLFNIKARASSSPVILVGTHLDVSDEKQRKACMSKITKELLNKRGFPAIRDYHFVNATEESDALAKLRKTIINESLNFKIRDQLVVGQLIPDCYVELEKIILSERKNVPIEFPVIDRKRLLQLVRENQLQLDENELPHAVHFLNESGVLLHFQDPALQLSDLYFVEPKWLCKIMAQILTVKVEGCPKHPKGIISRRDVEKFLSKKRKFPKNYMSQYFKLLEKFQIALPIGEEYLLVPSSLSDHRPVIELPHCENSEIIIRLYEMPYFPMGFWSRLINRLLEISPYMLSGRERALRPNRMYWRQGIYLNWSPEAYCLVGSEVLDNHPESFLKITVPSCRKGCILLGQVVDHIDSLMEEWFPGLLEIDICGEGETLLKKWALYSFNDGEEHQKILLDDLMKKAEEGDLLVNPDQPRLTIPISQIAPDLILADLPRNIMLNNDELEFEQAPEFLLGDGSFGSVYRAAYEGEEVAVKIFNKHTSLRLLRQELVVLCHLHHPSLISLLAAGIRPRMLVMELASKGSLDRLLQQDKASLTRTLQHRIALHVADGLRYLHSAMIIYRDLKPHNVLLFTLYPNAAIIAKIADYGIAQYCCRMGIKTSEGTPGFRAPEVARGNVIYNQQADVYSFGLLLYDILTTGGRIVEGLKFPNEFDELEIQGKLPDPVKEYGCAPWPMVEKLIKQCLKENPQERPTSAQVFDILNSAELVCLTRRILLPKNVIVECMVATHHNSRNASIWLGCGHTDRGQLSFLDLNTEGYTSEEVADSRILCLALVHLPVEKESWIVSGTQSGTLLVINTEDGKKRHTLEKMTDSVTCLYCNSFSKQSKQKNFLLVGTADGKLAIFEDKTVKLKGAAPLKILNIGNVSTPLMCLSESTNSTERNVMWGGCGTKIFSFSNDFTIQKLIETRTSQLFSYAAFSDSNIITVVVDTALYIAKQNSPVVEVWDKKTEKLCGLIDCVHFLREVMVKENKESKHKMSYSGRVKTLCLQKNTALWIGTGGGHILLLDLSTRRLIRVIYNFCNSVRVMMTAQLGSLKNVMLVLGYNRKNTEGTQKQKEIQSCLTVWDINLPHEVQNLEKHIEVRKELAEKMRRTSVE

Row | reduction of pelleting with microtubules against WT LRRK2^RCKW [1] [%] | decrease of microtubule binding against untreated microtubules [2] [%] | Substance
1 | 50 | – | LRRK2^RCKW-R1731D (from UniProt Q5S007 1327-2527) (domain or fragment)
2 | – | 50 | TMR-LRRK2^RCKW (LRRK2^RCKW randomly labeled with BODIPY TMR-X) (from UniProt Q5S007 1327-2527) (domain or fragment)
